# Literature values in paper PMC9441699 (Frontiers in Cellular and Infection Microbiology, 2022).
# B1: Lactoferrin: antiviral milk protein (protein, UniProt P02788 20-710, looked up)
# Lactotransferrin: GRRRSVQWCAVSQPEATKCFQWQRNMRKVRGPPVSCIKRDSPIQCIQAIAENRADAVTLDGGFIYEAGLAPYKLRPVAAEVYGTERQPRTHYYAVAVVKKGGSFQLNELQGLKSCHTGLRRTAGWNVPIGTLRPFLNWTGPPEPIEAAVARFFSASCVPGADKGQFPNLCRLCAGTGENKCAFSSQEPYFSYSGAFKCLRDGAGDVAFIRESTVFEDLSDEAERDEYELLCPDNTRKPVDKFKDCHLARVPSHAVVARSVNGKEDAIWNLLRQAQEKFGKDKSPKFQLFGSPSGQKDLLFKDSAIGFSRVPPRIDSGLYLGSGYFTAIQNLRKSEEEVAARRARVVWCAVGEQELRKCNQWSGLSEGSVTCSSASTTEDCIALVLKGEADAMSLDGGYVYTAGKCGLVPVLAENYKSQQSSDPDPNCVDRPVEGYLAVAVVRRSDTSLTWNSVKGKKSCHTAVDRTAGWNIPMGLLFNQTGSCKFDEYFSQSCAPGSDPRSNLCALCIGDEQGENKCVPNSNERYYGYTGAFRCLAENAGDVAFVKDVTVLQNTDGNNNEAWAKDLKLADFALLCLDGKRKPVTEARSCHLAMAPNHAVVSRMDKVERLKQVLLHQQAKFGRNGSDCPDKFCLFQSETKNLLFNDNTECLARLHGKTTYEKYLGPQYVAGITNLKKCSTSPLLEACEFLRK
# Tested on: pseudotyped SARS-CoV
molecule,measurement,value
B1,inhibition of pseudotyped SARS-CoV,50%
